{"source": "the DeepSol protein solubility set"}
{"assay": "soluble on expression in E. coli; label from the status in PepcDB or PDB records"}
{"sequence": "MSLAKLRPTKTFKPKPPAGLPDRETLLAFLRDAGETGKADIARHFGLKGADRRALREMIRELEAQGALAKRGRKGFAEAGSLPPVGVADVVERDGDGELYVKLTKSDDDVPNVRLAPGKGEAAAGAPGLGDRLLVRFERLETGEFEAKLIKKLGQSAHKILGVIRKHRREVRVEPVDRKSKESLVLDPSVAHDFKEGDLVLAQVGTHGGRYGPKPGKVLEVVGTENDPRAASLIAIHSHGIPTGFSEAAEAEAKTAVEPTLAGREDLRDLPFVTIDPVDARDHDDAVYAHPDEDETNKGGFVVWVAIADVAAYVRPGSALDRDAREKGNSVYFPDRVEPMLPETLSNGLCSLRESENRATLAVRMVFDKSGRKKGHRFVRGLMRSAAKLSYEQAQAAIDGQPDDKAGPLLDPILKPLWDAYRTMKIGRDARSPLAIESDERRIIIKGGEITSITKRASLEAHKLIEEMMVQANVCAAESLEAKRSPLIYRVHDTPSLEKVQNLADFLQTLEIRWSKGEAPQTARFNKLLEETRESPNAAIINEVVLRTQMQAHYSADNIGHFGLNLAKYAHFTSPIRRYADLIVHRGLIRALGLGTDGLTDQDIAQIKDTAEVITHAERRAMAAERDATDRYIAAFLADRVGATFEGRITGVTRFGLFIKLADTGADGLVPVSSLGQEFFVHDDKMHALVGERTGKRWPLGLSVEVKLVEATPVTGGLLFEMLSEPLPPDPKMPRPRLGARRQAAVKPRGGLPKGVRRGKRREGHHHHHH", "soluble on expression in E. coli": "soluble"}
{"sequence": "MSLAKNRLRAIPLGGAGEVGRNMWVLEQNDEILVLDCGVMFPEADMLGVDLVLPDITYLRDQKDKIKAIVLTHGHEDHIGAVPYLVPELDFPPIYGTPLTLGMLAGKLKEHRLLDRARLVKMQAGESFTVGSFTIEPFSVAHSIPDTVGLAIDTPVGLAIYLTDWKFDHTPVDGRPTDLVKLSELGRRSPLLLITDCVRVESKGYTPSEQVVGEAFDSIFATAPGRIIVATFASNVSRVQQVIDSAEAYGRKVVVAGRSMENTTRIALELGYLRAQQGTLIRPQEAAGLADDQVAVICTGSQGEPMSALARMANRDYPHVKIKEGDTVVVSATPIPGNEVSVNRVINNLFRLGAEVIYGGSPSSLAVHVSGHAAQEELKMALAILRPEFVVPFHGDYRHMMLYRKLALGMGGLFSESNVIIPENEGHHHHHH", "soluble on expression in E. coli": "not soluble"}
{"sequence": "MSLAKRIVGSTPKQDGFRMPGEFEPQEKVWMIWPERPDNWRDGGKPVQEAFTNVAKAISQFTPMNVVVSQQQFQNCRRQLPPEITVYEMSNNDAWVRDCGPSFVINDHGEIRGVDWTFNAWGGLVDGLYFPWDQDDLVAQKICEIEHVDSYRTDDFVLEGGSFHVDGQGTVLTTEMCLLSEGRNPQLSKEAIEQKLCDYLNVEKVLWLGDGIDPEETNGHVDDVACFIAPGEVACIYTEDQNSPFYEAAQDAYQRLLKMTDAKGRQLKVHKLCCPVKNVTIKGSFKIDFVEGTMPREDGDICIASYMNFLITNDGVIVPQYGDENDHLALEQVQTMFPDKKIVGVNTVEVVYGGGNIHCITQQEPKREGGSHHHHHH", "soluble on expression in E. coli": "soluble"}
{"sequence": "MSLAKVFTQEEREKIKGQVVELVRQSGRETLRQLEVKTGATRYLMSVLARELVASGDVYNSGYGLFPSEQARKDWQNARKKLSRAKVKKPAVVDPDLIWSSPDGEIRRYDSRLNIICRECRKSEAMQRVLAFYQGNFQEAVLEGHHHHHH", "soluble on expression in E. coli": "not soluble"}
{"sequence": "MSLAKYKKLFEPYTLNNDVVLKNRLVVAPLTIYDSGPDGELTPAAHNFWRNRFRGFGTWIVPFTNVHPSGIGFESPNAFHEENLPTLKAYATISHEQGAKAIIQLAHAGIHADPAMTKGYDLMGPSNLPYMGVRAMTDSEVREMVNAFAYATELAISAGLDGVEIHGANGWLIQQFVSETYNQRTDHWGGSVEKRFNFPLAIIDAIEAVRHKYHRPDFIVGYRFSPEEPGEVGLTMTETLALVDRLLDKPLQYIHISLWNFYKKIRRGGDVKKTRMEAVHDRINGRLPFIGVGDLFAEEQGLKAFNTGWADLLAVGGSVELNPNLIELIKTGQEDQIQSEFDWNEMDSYRFTPAMLYGTLAGNAMFPKVKEGHHHHHH", "soluble on expression in E. coli": "soluble"}
{"sequence": "MSLALEVNMLTGGPTGTYIQIGRDIAKAASACGIEMTVHESAGSLENFLGVRQRPRTQFGIVQSDVLEYLKTFAADDPEVSRAIFGVRIAFPLYDEEVHLLARREIGSLKDLDGKRVSIGVENSGTFLTASLVLDLAEVAPGERRMMNQDDSLKALLAGDIDAFFYVAGAPAKIFASPEIDGERFHLVPVAEEVLRQVYKPTQIPAGSYPFQTGPVDAIAVKAVLMTYGYDPKRNAYHRESCKAVSDIAHVVSTHFPELQQSGHPKWKQVNLTDLPAGWDIGECVNAGLEPGYRLPCDPPEPAVAAPADASAESEANRAYRRQICAVVGEGHHHHHH", "soluble on expression in E. coli": "soluble"}
{"sequence": "MSLAMEHVDVLIVGAGLSGIGAAYHLQKHCPGKTYAILEGREAIGGTWDLFRYPGIRSDSDMYTLGYSFKPWKAAKAIADGPSILDYVRETAREHDIDRHIRFQHLVKRASWSSETATWTVEAEHDGKPVTLTCRFLHMCSGYYRYSAGYTPDFAGTERFKGRIVHPQHWPEDLDYSGKKVVVIGSGATAVTLVPEMAKTAAHVTMLQRSPTYVVSRPAEDGIANWLRSKLPAMTAYGITRWKNVLFQLFFFNLARKKPEKVKERLLGMVRDHLGPGYDVETHFTPRYNPWDQRLCLVPDADLFDAIKSGAASVVTDHIETFTETGIQLKSGKTLDADVIVTATGLQLQLLSGMEVVVDGKVADLSQSMSYKGMMFSDVPNLASVFGYTNASWTLKADLTSEYVCRLLNHMDRTGADYCVPRLDGEVEAAPWLDFSSGYITRSIGHFPKQGTRKPWKVHQNYALDLMTLRMGKVEDGVMQFGRKTGATAKAKPEKALEPAEGHHHHHH", "soluble on expression in E. coli": "soluble"}
{"sequence": "MSLAMINDSIEQVWRDFSIRPAAEADDATWCRRVYLDVIGRIPSLEELSEFMSDRDSNKRANLVDRLLNDDRYTEEYANHWSTVWTNLLIGRSGGTDRRDLTNRTGMQKYLRDSFAGNKTYDQMTYELVTAEGSTTPGNANFNGAVNFLVDKVNAEKGTLATSSVSRIFLGQQVQCTQCHNHPFNQWKQQKFWEFNAFFRQTRALRRFVDGTQDIESAELVSQDFAGEANDPEDALVFYELRNGLQKVAYPVFTDGTEIEKSGFVEDVNRREELGRLMLQSEYLDKMIVNRMWSMFLGYGFTRPIDDLGPHNPSSHPELLENLGKEFRANSYDLKKLITWITLSRPYQLASTLSASNEIDDPTIGESPKFSRFYLRQMSAEQLYASMVTASNAQSKGSYEQQEAERRRWLSQFVVAFGNDEGTETTTFNGSIPQALMLFNGDLTKNAISLEAGSFLDQLSQTGRSPKDRVTRLFLSGLARRPTKNEVSIASKLLVARKGDEPEMLQDMWWAILNSNEFIMQHEGHHHHHH", "soluble on expression in E. coli": "soluble"}
{"sequence": "MSLANGVWSLQPLADMSAAEFRDWQVLLENRTGVVLNEQRRTFLQTSLTARMRELGIGDYHSYYRQVTDGPRGAVEWAILLDRLTVQETRFFRHPPSFELLERYLGERLGREGMPRPWALWSVGCSSGEEPYSMAMCAAQALRGWQRGDFFGVTGTDISLHALQRARAANYPARKLEQLPAEMVERYCERQADGSFSVKTILTGRVCCARLNVLDLAKAPWSGMDVIFCQNLLIYFRRWRRREILNRLAERLAPGGLLVIGVGEVVDWSHPELEPVADERVLAFTRKGEGHHHHHH", "soluble on expression in E. coli": "soluble"}
{"sequence": "MSLAPRFTVTYFVRAADEAEAKARALDIALEQTVEIPRNVVPKGYVEDEILGRLESLLQDPEGRPGFLAAISYSEDDIGGDFLQFLNIVFGNSSIKPGIKVEDIGLSPGLLDLCKGPRHGIVGLRARAGIGEKPLLMSAIKPAGLSTTELARLAYDFALGGMHFVKDDHGLVDQKTAPFEERLKACIEAVGEANAKSGGRTSFVPNITGPATAIIERAKQAQEYGAGGVMIAPALAGYDIVRTLAADPDFSLPIVSHPAFSGANVVSPDCGFTHRAFFGTLHRLMGADAVVYPNFGGRFGFTREECQSIAKTCSVDMGGPKAIVAAPGGGMTFARIPEMREAYGNDIMYLVGGALLSEPDLVSACKRLVAATEEGHHHHHH", "soluble on expression in E. coli": "soluble"}
{"sequence": "MSLAPRLKLRDITFFERPVQFARPFRFGAITINATTQLFVRVEIEVEGRGSAVGASAELLVPKWFDKRPEFSPAQTVDGLRRSLEIARGLYLARTGFLTAFDLHAACIGAQIATCAKKNIPALAAAYGLAEIDKAILDALLRGVETGFFDGMAGNVAGIDARLSPDLKDAEIAAFLSSRKPLPRVAIRHTVDLDDTVEGKGGVADAHENAGASYFKLKLRGDPAADAARLARIGKELDTLGRSYKVTLDANEQYADLAALQALMDRLDHDSDLRPIASRLLYVEQPMPRDITRQSPLGSLAARGFIIDEADDSYDAFPAARALGYHGISSKSCKGLYKSIVSATRAAKWSGGGEKFFVTGEDLTCQAGLAVQQDLALGAFLGVTHAERNGHHYVDGFGDTPAAEAAAFAAAHPDLYADAGQGIRLSIHDGDLLTGSLHAAGFATSVHPDWSALRPLEQPTSLQEQLAEGHHHHHH", "soluble on expression in E. coli": "soluble"}
{"sequence": "MSLASISPQGSMSLLSQLEIERLKASSNSQLYKLFRNCCLAVLNAGSHTDSSADIYDSYKDFEVNIIRRERGIKLELIEPPEEAFVDGEVIVGIRELLESVLRDILFTGERYSETDLEHADSATLTHVVFDILRNARTLRPQEEPNMVVCWGGHSINEIEYKYTKDVGYHIGLRGLNICTGCGPGAMKGPMKGATIGHAKQRVEGGRYLGLTEPGIIAAEPPNPIVNELVILPDIEKRLEAFVRCAHGIVIFPGGAGTAEELLYLLGILMHPDNQRQSLPVILTGPASSRDYFEALDEFIGATIGDEARQLYKIIIDDPAAVAQHMHAGMAAVKQYRRDSGDAYYFNWTLKINEEFQRPFSPTHENVAALNLHPDQPKERLAADLRRAFSAIVAGNVKDEGIRQIRKNGVFTIHGEQSLMKRLDELLRAFVEQGRMKLPGSVYNPCYKVITDEGHHHHHH", "soluble on expression in E. coli": "soluble"}
{"sequence": "MSLASIVSVSSYPPPYLLKQETTTEFAKELFQEDFRDIERLLKSFSNGQIEERQFAVPLDWFRQDHSLQEKNDTYIKLATMFSVEVVRQCLQSNVFLKKPVAEEEIDTIVFVSSSGMATPSIEARMMNELPFSPHTKRVPMWGLGCAGGAAGMSRAYEYCRAFPRANVLVVCVELCSLTFQRQDRTKSNLIGASLFSDGVACALVSGDESDVLGRMKMPTRPLILGSSSTLMPDSEQVMGWDVKDTGLHVVFSRDIPNIIRHWLRPNVERFLETYRLSLEQIEAFIAHPGGRKVLEAYEEALSFSDEMTEYSRDILRHHGNMSSPTVLYVLEKFMKDTRDPGQYGLMAALGPGFCSELVLMQWEAVHEGHHHHHH", "soluble on expression in E. coli": "soluble"}
{"sequence": "MSLASRRTDLIGMIVPDARQPFFGEMAHAVEQAAAERGKMVLVGNSDYVAEREVHYLRAFLGMRVSGLILVSHALNNQAAAEIEAWDARVVLLHERPELIDDVAVVTDDIGGAQLATRHLLEHGYAYVACLGGTAETPSVGDPVSDHVEGWRRAMQEAGIPTEGKLFEAPYNRYDAYQVGLELLAGPNRPPAIFCSTDDQAIGVLRAARELRIDVPGELAVAGFDDVKEAALTDPPLTTIASDRSAMARAAVDLVLDDGLRVAGSRRERLKLFPSRLVVRRSCGCAPQETPGSEGHHHHHH", "soluble on expression in E. coli": "soluble"}
